Assay [1] addresses Full length UFC1, residues 1–167 (UniProt Q9Y3C8). Kind of assay: ITC; VP-ITC, 25 °C; UBA5 peptides (~400 µM) titrated into 20–25 µM binding partner; 25 mM HEPES pH 7.5, 100 mM NaCl; one-site model; a single profile for each interaction. On the technique in general: ITC needs no label: the signal is the heat of the interaction.
Assay [2] shares this target. The assay is described as above. The source holds these as a separate data set.

Like-named read-outs stand apart in the source and are kept apart here.

For the molecule GAMEDSGESLEDLMAKMKNM [UBA5 C-terminal region R3, residues 388–404], in assay [1], the Ka was 30000 M⁻¹; the dissociation constant (Kd) (in general, the equilibrium constant for the complex coming apart) stood at 10 µM; the dH is -4.99 kcal/mol; the stoichiometry N (commonly the number of molecules, sites or subunits per partner or assembly) was 0.95. Further, in assay [2], the Kd is over 11 µM.
